US20090282582A1, “ENVIRONMENTAL STRESS RESPONSIVE PROMOTER AND METHOD OF TISSUE-SPECIFIC GENE EXPRESSION USING THE SAME” (RIKEN, priority 2006, published 2009)

Legend:
[1] = tested on: Arabidopsis thaliana (columbia ecotype) plant body; assay: full-length cDNA microarray analysis of gene expression levels after environmental stress application; details: in vivo
Procedure, shortened: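 Three-week-old Arabidopsis grown at 22° C. on a 16 h light/8 h dark cycle were stressed by 4° C. cold, 2 h open-plate dehydration, or root application of MS medium containing 250 mM NaCl or 100 μM ABA. Total RNA/mRNA from stressed and unstressed plants was reverse transcribed with Cy3/Cy5 dUTP and hybridized to full-length cDNA microarrays.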

[2] = tested on: transgenic Arabidopsis thaliana plant body (luciferase reporter gene); assay: luciferase assay of promoter::LUC transgenic plants after environmental stress application; assay type: in vivo; details: for activity to induce gene expression compared with other promoters: in vivo; for Tissue allowing specific induction: summary over stress types
Procedure, shortened: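 Arabidopsis lines carrying promoter::luciferase, 10 days after sowing on MS agar, sprayed with 1 mM luciferin (0.01% Triton-X), 5 min dark, imaged by ARGUS before stress. Stresses: 4° C, 2 h air dehydration, 250 mM NaCl or 100 μM ABA to roots; luminescence at 2, 5, 10 h.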

B1: Promoter of RAFL08-17-O07: environmental stress responsive promoter DNA, SEQ ID NO: 8, upstream of At2g29450 (glutathione S-transferase) (nucleic acid, listed as Arabidopsis thaliana)
DNA: CGGTGGCAAAACAATTGGATTTTTGGACTTGGTCGCAGGAAGTATGATCCCGTTTTGTCTTGCTCGAGGTTGGGAAGGTATGGGAATTGATATGATTCCAGAGGAAAAGTTTCCAGAGCTAAACAGATGGATCAAAAATTTGAAAGAAATTGAGATCGTGAGAGAATGTATTCCTCCTAGAGAGGAACAAATTGAGCATATGAAGAAAGTTGTAGAAAGAATCAAATCAGCCTAAGAGACAACAATGATACTCTTCGATCAGTAGATGTTAACTATATGTTTGTGTAATCTTGTTATAATAGTTTGTATGAACAATAAATGAAACATTTGTATGAACAATTAGTGTTTTTACTAAATTCTAATGTCAATTAATTATTATAAACATTTTAAATGTAGTAGTATTCAATTTCTTACAAATCATAAGAAATTGGTTCATAAACCTGGAGTTTTCATATGAAAGAAAAGTAGATAAAAGCTATAATTTAGTCAAACCATCCTTCTTAATAAAACCACAACTATGATTAAATGTGAACATGTATTTCGACACGTAAGAAGTTGTGTAAACAGAGGAAAGTACAACGGACATGTGGGTCTATTTGTTGCGGCACAATATAACAAATTTCTTTAGTATATTTTTAGTATCGTGAGGTGGTGAGTCTTGTAACCATAGAAAATTCACCGATACTTTATAACATTGTTGGAAGGAAAATTCAGCAAACAAGTTCGTAGATGGAGAAACGGAAAAACCAACGCCTATTATAACAACAACATTTTTAATATATGCCAAAAGGAACATCAAATAACAGATTAGTACTAATTCTTTTTTTATAGCTCAGACTATAGAGTTGTTTGTTTTCTTGGGCGTCAATATAACAAACGAGAATGACAAATGGTTTTAAAGCTGTTGATGTTTCATACACAGACAAAATGGATCAATTATGAAGAACCACGATAAAGTGATGGGTATAATTGGGGAAGCAGAAGAAATTCTTGACGAAGCATGGGGTTGTCTTCAGAAAATGAATGGATCAAGTCAAGGTACACATGCTCCAGGGATAAGGCAAGGTTAGGAATTAGGACACATCTCCACTTACTAAAAAAGAGATAAAAAAAAATTATAAAGGGAACGTTATAAATATGTTGTAAAGTCAACATCTGTTTCCTTCTAGACTCTTCGCATTTACATCACACTGCCGACCATATAAAACGGCAAAGTTCGTCGTCGTTTTATCACAAGACCATCAACACCATAAGGCTATAAATCCAAGCTAAAAGGTAGTGATTAACTCCACAAAACCAGAAAAAACTACATTTCTAACATATAGAAGAAACAGAGAAAAAGAGAGAGAGACCCCTA
- Environmental stress type to which the promoter responds [1]: Dehydration and salt
- Tissue in which specific induction of expression is realized ([2]; ABA stress (100 μM ABA)): Root tissue
- Tissue in which specific induction of expression is realized ([2]; ABA stress (100 μM ABA), listed as promoter of RAFL08-17-O07): root tissue
- activity to induce gene expression compared with other promoters [2]: lower than that of other promoters
- Tissue allowing specific induction [2]: Root tissue

B2: Promoter of RAFL09-07-M01: environmental stress responsive promoter DNA, SEQ ID NO: 7, upstream of At4g20830 (protein containing FAD-binding domain) (nucleic acid, listed as Arabidopsis thaliana)
DNA: AGGTGCAGGAGATTGAATCGAAGCTTCGTTTATAAAACAATGTACATAGTTGTTTAAAGTCTTAAAGTTGGACTTTTCTTTTGCTCAGCCCCACAAACCCAATTGGATTATAATACCGACGCCGACCAATCAATGCTACGACCATTGACTTATAAAACATACATCGGACACACACAAAAAAAAACTACACTTTTTGTATCAGCAATCTTTTTAGTTATTTGTTTTCAGTTATATAAATCAATGTTTGTGTTTTCTAATAACAGTTATTAGTATGCTAGTGATGCATGGTTAAAAAAAAAAAAAGAAATTTCAAATATATATTTTAATTTGCATTATGTAAAATATTTTAAAAATAAGTCCCTAGTACCAATGGAGTGTTTTTGTTTAAGCTACAAGTGAATTATAATACGTAGTAATCTTGATTCAAATGGAAAGATTTACCATGTGGGTCTATACCAAAACCGTGTCCTTTTTCATATGTATGAATCTCTAATAGTTGCTTCTTTTGACTAGAATAATTTGTAAAGTAACTCCTAATTCATAAATATTGAAGATTAGTCTGATTTATTATTAATATGCAAATCTCTGATTAATAAGAAATAAATTATAATAGAAATATTGATGTGTACTGATCATCTTTTAATAAATGTTTGAGACTACAAATACTATAATGAATCAAATGAACATAAATGTATAGATGAACTGAATAAAATTCCAGATACACCTTGAATTAAATATGTATTCATAGTATTTTTTTTTAAAATGAAATCTGGATTTTAAATCCTTATTATTCAAAAAAATCTTCTCCTTTGATATTTTTGCTATAACAAATTAAAATAAAATCTGTAATCACTAATCATATCCCTTAACTCCCTTTAATATCTTTTGTTGACCAAAACAAATATTTTTTTGTTATATGCAACGAATAAAAAAACATTGAAAGTACTTTCCAAAAACAAAACACGTCTTCTTCTCCCTGCGGTTATAAATAGACACGGATAAGTACAAAGAACAGAGGAACACGAGACCCAAGAAAAAGATCTCAAA
- Environmental stress type to which the promoter responds [1]: Dehydration and salt
- Tissue in which specific induction of expression is realized ([2]; Salt stress (250 mM NaCl)): Stem and leaf tissue and root tissue
- Tissue in which specific induction of expression is realized ([2]; Salt stress (250 mM NaCl), listed as promoter of RAFL09-07-M01): stem and leaf tissue and root tissue
- activity to induce gene expression compared with other promoters [2]: lower than that of other promoters
- Tissue allowing specific induction [2]: Stem and leaf tissue and root tissue
